In paper doi:10.1101/2020.02.24.962464, “Kinetics characterization of ASXL1/2-mediated allosteric regulation of BAP1 deubiquitinase” (bioRxiv, 2020):
“And” between values parts separate entries of the source, which are not always exact repeats. Equal entries are not always repeated.

T1: full-length His-BAP1 (Bv-His-BAP1-FL-WT) (human, UniProt Q92560 1-729)
T1 sequence (looked up): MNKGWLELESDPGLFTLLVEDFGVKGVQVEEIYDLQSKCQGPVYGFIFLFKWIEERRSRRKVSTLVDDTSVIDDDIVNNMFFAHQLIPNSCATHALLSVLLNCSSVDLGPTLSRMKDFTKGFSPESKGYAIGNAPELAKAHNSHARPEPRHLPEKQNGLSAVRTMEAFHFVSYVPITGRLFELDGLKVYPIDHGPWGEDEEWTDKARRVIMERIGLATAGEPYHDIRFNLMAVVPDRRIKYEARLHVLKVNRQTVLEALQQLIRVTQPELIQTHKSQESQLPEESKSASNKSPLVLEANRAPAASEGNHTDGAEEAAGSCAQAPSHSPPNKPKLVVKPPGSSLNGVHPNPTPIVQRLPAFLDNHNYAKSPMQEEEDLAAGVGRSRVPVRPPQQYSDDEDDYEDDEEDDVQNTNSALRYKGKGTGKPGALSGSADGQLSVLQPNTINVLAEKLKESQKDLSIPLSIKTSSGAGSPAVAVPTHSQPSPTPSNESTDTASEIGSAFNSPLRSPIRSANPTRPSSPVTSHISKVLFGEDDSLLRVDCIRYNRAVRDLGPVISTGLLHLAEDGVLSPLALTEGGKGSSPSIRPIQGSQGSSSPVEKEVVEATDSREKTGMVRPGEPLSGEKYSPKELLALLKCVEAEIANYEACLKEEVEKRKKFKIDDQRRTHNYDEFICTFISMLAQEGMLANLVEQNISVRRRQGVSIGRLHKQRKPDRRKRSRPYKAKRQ

T2: full-length His-BAP1 (Bv-His-BAP1-FL-WT) (human, UniProt Q92560 1-729)
T2 chain: T1 sequence (looked up)

T3: GST-BAP1-ULD (human, UniProt Q92560 601-729)
T3 construct: BAP1, human, ULD domain; also called GST-ULD; pGEX-4T-1-BAP1-ULD; source: E. coli BL21 (DE3), purified (GST resin, native conditions)
T3 sequence (looked up): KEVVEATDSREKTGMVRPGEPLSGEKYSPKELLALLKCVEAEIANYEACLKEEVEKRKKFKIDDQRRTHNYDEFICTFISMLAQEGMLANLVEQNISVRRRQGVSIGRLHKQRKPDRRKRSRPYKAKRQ

B1: GST-BAP1-UCH-WT (1-250 aa) (domain or fragment, human, UniProt Q92560 1-250, looked up)
chain: MNKGWLELESDPGLFTLLVEDFGVKGVQVEEIYDLQSKCQGPVYGFIFLFKWIEERRSRRKVSTLVDDTSVIDDDIVNNMFFAHQLIPNSCATHALLSVLLNCSSVDLGPTLSRMKDFTKGFSPESKGYAIGNAPELAKAHNSHARPEPRHLPEKQNGLSAVRTMEAFHFVSYVPITGRLFELDGLKVYPIDHGPWGEDEEWTDKARRVIMERIGLATAGEPYHDIRFNLMAVVPDRRIKYEARLHVLKV
notes: BAP1, human, ubiquitin C-terminal hydrolase (UCH) domain, residues 1-250 (pGEX-2TK-BAP1-UCH-WT); also called GST-UCH; pGEX-2TK-BAP1-UCH-WT; source: E. coli BL21 (DE3), purified (GST resin, native conditions)
B2: His-ULD/AB protein complex (pETDuet-1-His-BAP1-ULD+ASXL2-AB) (complex, human)
chain 1: T3 sequence (looked up)
chain 2: MKRTKCADIDVETPDSILVNTNLRALINKHTFSVLPGDCQQRLLLLLPEVDRQVGPDGLMKLNGSALNNEFFTSAAQGWKERLSEGEFTPEMQVRIRQEIEKEKKVEPWKEQFFESYYGQS
notes: BAP1, human, ULD domain; ASXL2, human, AB box; Complex formed beforehand by co-expression; used as one analyte in pull-down, SPR and Ub-AMC assays; also called ULD/AB complex; Duet-His-ULD/AB; source: E. coli Rosetta 2 (DE3) pLysS, co-expressed from pETDuet-1, purified (cobalt beads, Talon, native conditions)
B3: His-ASXL2-AB (261-381 aa) (domain or fragment, human, UniProt Q76L83 261-381, looked up)
chain: B2 chain 2
notes: ASXL2, human, AB box, residues 261-381 (pQE30-ASXL2-AB); also called His-AB; AB box
B4: His-BAP1-ULD (601-729 aa) (domain or fragment, human, UniProt Q92560 601-729, looked up)
chain: T3 sequence (looked up)
notes: BAP1, human, UCH37-like domain (ULD), residues 601-729 (pQE30-BAP1-ULD); also called His-ULD; ULD domain

Assays:
[1] = molecular target: B2; assay: SPR; Biacore T200; full-length His-BAP1, GST-UCH or GST alone amine-coupled to a CM5 chip (~3000 RU), His-ULD/AB complex injected; 25 mM HEPES pH 7.4, 250 mM NaCl, 5 mM DTT, 0.05% Tween20; steady-state and kinetic one-site fits; conditions: both partners purified
[2] = molecular target: T1, full-length His-BAP1 (Bv-His-BAP1-FL-WT); assay: cell-based or functional assay
[3] = molecular target: T2, full-length His-BAP1 (Bv-His-BAP1-FL-WT); assay: SPR; steady-state equilibrium
[4] = molecular target: T1, full-length His-BAP1 (Bv-His-BAP1-FL-WT); assay: SPR; Biacore T200; full-length His-BAP1, GST-UCH or GST alone amine-coupled to a CM5 chip (~3000 RU), His-ULD/AB complex injected; 25 mM HEPES pH 7.4, 250 mM NaCl, 5 mM DTT, 0.05% Tween20; steady-state and kinetic one-site fits; conditions: both partners purified
[5] = molecular target: T3, GST-BAP1-ULD; assay: SPR; Biacore T200; GST-ULD captured by anti-GST antibody on a CM5 chip (400 RU), His-AB injected; 25 mM HEPES pH 7.4, 150 mM NaCl, 5 mM DTT, 0.05% Tween20; steady-state and kinetic one-site fits; conditions: both partners purified
[6] = molecular target: B4; assay: ITC; Microcal ITC 200; His-AB 77 µM in the cell, His-ULD 574 µM titrated; 50 mM potassium phosphate pH 7.5, 200 mM potassium chloride, 1 mM TCEP; duplicate; conditions: both partners purified
[7] = molecular target: B3; assay: as above; conditions: both partners purified

Binder: B1
- koff [1]: 0.044 s⁻¹
- kon [1]: 19000 M⁻¹ s⁻¹

Binder: B2
- fold increase of BAP1 specific activity (100 nM Ub-AMC) with increasing concentrations of His-ULD/AB [2]: 4.5 fold
- Kd [3]: 740 nM
- Kd [4]: 850 nM and 1910 nM
- koff [4]: 0.033 s⁻¹
- kon [4]: 39000 M⁻¹ s⁻¹

Binder: B3
- fold increase of the maximal velocity of BAP1 cleavage of Ub-AMC with increasing concentrations of ASXL2-AB [2]: 2.5 fold
- Kd [5]: 134 nM and 67 nM
- koff [5]: 0.0024 s⁻¹
- kon [5]: 38000 M⁻¹ s⁻¹
- Kd [6]: ~4260 nM

Binder: B4
- dH [7]: -9.87 kcal/mol
- stoichiometry N [7]: 1
